Experiment [1] concerns the target HER2-ECD (in house) (UniProt P04626). As to the kind of experiment: SPR (BIAcore T200), Fab captured on anti-Fab chip, HER2-ECD as analyte, 25 C, 1:1 model. On the technique in general: In SPR one partner is held on a chip, and binding of the other changes the refractive index at the surface.
Experiment [2] shares this target. As to the kind of experiment: SPR (refers to Table G3).
Experiment [3] deals with T1, MET-R Fc (R&D Systems, catalog number 8614-MT) (UniProt P08581 25-932).
T1 construct: Bought reagent used as SPR analyte; not shown: Fc part of the bought fusion protein
As to the kind of experiment: SPR (BIAcore T200), Fab captured on anti-Fab chip, MET-R Fc as analyte, 25 C, 1:1 model.

The target in experiment [4] is T1, MET-R Fc (R&D Systems, catalog number …). Description: SPR (BIAcore T200), Fab captured on anti-Fab chip, MET-R Fc as analyte; n.d. = binding was not detected.
In experiment [5] the target is T2, IL-13 (in-house) (UniProt P35225 35-146, limits assumed).
T2 construct: SPR analyte
Description: SPR (BIAcore T200), Fab captured on anti-Fab chip, IL-13 as analyte, 25 C, 1:1 model.

Experiment [6] concerns the target T2, IL-13 (in-house). As to the kind of experiment: SPR.
The target of experiment [7] is T2, IL-13 (in-house). As to the kind of experiment: SPR (BIAcore T200), Fab captured on anti-Fab chip, IL-13 as analyte; n.d. = binding was not detected.

Positions count from the first letter of the chain named. Numbers in names are those of the source. A value given as a limit tells only on which side of the number the result lay.

Take anti-HER2 Fab variant CDR H3 W95D: in the experiment with HER2-ECD (in house) [1], the Kd (in general, the free concentration of one partner at which half of the binding sites on the other are occupied at equilibrium, for simple one-to-one binding) is 36.5 nM; the koff – broadly, the first-order rate constant of dissociation – worked out at 0.00294 s⁻¹; the on-rate (kon) (usually a measure of how fast the partners come together) came to 80000 M⁻¹ s⁻¹. Besides, in the experiment with HER2-ECD (in house) [2], the fold change of KD against the unmodified parent is 30 fold.

B1: Parental anti-MET Fab (onartuzumab / 5D5) (Fab, V domains shown)
VH: EVQLVESGGGLVQPGGSLRLSCAASGYTFTSYWLHWVRQAPGKGLEWVGMIDPSNSDTRFNPNFKDRFTISADTSKNTAYLQMNSLRAEDTAVYYCATYRSYVTPLDYWGQGTLVTVSS
VL: DIQMTQSPSSLSASVGDRVTITCKSSQSLLYTSSQKNYLAWYQQKPGKAPKLLIYWASTRESGVPSRFSGSGSGTDFTLTISSLQPEDFATYYCQQYYAYPWTFGQGTKVEIK
notes: Tested as Fab
For B1, in experiment [3], the Kd is under 0.05 nM, the koff was under 1e-05 s⁻¹ and the kon is 179000 M⁻¹ s⁻¹.

B2: anti-MET Fab variant CDR L3 Y94A (Fab, V domains shown)
VH: B1 VH
VL: B1 VL with Y100A
notes: Fab; variable domains only; Kabat numbering
In experiment [3], B2 came in with a Kd of 5.7 nM, a koff of 0.00065 s⁻¹ and a kon of 115000 M⁻¹ s⁻¹.

B3: anti-MET Fab variant CDR L3 Y92A (Fab, V domains shown)
VH: B1 VH
VL: B1 VL with Y98A
notes: as for B2
Regarding B3, in experiment [3], the Kd is 1.1 nM, the off-rate constant (koff) was 0.00019 s⁻¹ and the kon turned out to be 172000 M⁻¹ s⁻¹.

B4: anti-MET Fab variant CDR L3 Y91A:Y94A (Fab, V domains shown)
VH: B1 VH
VL: B1 VL with Y97A, Y100A
notes: as for B2
For the molecule B4, the binding result in experiment [4] is on record as “no binding (tested: analyte up to 75 nM)”.

B5: anti-MET Fab variant CDR L3 P95A (Fab, V domains shown)
VH: B1 VH
VL: B1 VL with P101A
notes: as for B2
As to B5, in experiment [3], the dissociation constant Kd is under 0.06 nM, the koff was under 1e-05 s⁻¹ and the kon was determined as 153000 M⁻¹ s⁻¹.

B6: anti-MET Fab variant CDR L3 W96A (Fab, V domains shown)
VH: B1 VH
VL: B1 VL with W102A
notes: as for B2
With B6, in experiment [3], binding was characterised by a dissociation constant (Kd) of 2.1 nM, the off-rate constant (koff) came out at 0.00017 s⁻¹ and the kon was determined as 84000 M⁻¹ s⁻¹.

B7: anti-MET Fab variant CDR L3 Y91A:W96A (Fab, V domains shown)
VH: B1 VH
VL: B1 VL with Y97A, W102A
notes: as for B2
For B7, the binding result in experiment [4] is “no binding (tested: analyte up to 75 nM)”.

B8: anti-MET Fab variant CDR L3 Y91A (Fab, V domains shown)
VH: B1 VH
VL: B1 VL with Y97A
notes: Fab; variable domains only
As for B8, in experiment [3], the Kd stood at 0.8 nM, the koff came out at 6e-05 s⁻¹ and the kon came to 70000 M⁻¹ s⁻¹.

B9: Parental anti-IL-13 Fab (lebrikizumab) (Fab, V domains shown)
VH: EVTLRESGPALVKPTQTLTLTCTVSGFSLSAYSVNWIRQPPGKALEWLAMIWGDGKIVYNSALKSRLTISKDTSKNQVVLTMTNMDPVDTATYYCAGDGYYPYAMDNWGQGSLVTVSS
VL: DIVLTQSPDSLSVSLGERATINCRASKSVDSYGNSFMHWYQQKPGQPPKLLIYLASNLESGVPDRFSGSGSGTDFTLTISSLQAEDVAVYYCQQNNEDPRTFGGGTKVEIK
notes: Tested as Fab
B9: in the experiment with IL-13 (in-house) [5], the Kd turned out to be 0.05 nM, the koff came to 5e-05 s⁻¹ and the kon was 1.17e+06 M⁻¹ s⁻¹.

B10: anti-IL-13 Fab variant CDR H3 P99A (Fab, name in Kabat numbering, V domains shown)
VH: B9 VH with P102A
VL: B9 VL
notes: as for B2
In the experiment with IL-13 (in-house) [5], B10 gave a Kd of 1.8 nM, a koff of 0.00269 s⁻¹ and a kon of 1.5e+06 M⁻¹ s⁻¹.

B11: anti-IL-13 Fab variant CDR L3 N92A (Fab, V domains shown)
VH: B9 VH
VL: B9 VL with N96A
notes: as for B2
For the molecule B11, in the experiment with IL-13 (in-house) [5], the affinity, expressed as Kd, was 0.03 nM; the koff is 3e-05 s⁻¹; the kon was 1.03e+06 M⁻¹ s⁻¹.

B12: anti-IL-13 Fab variant CDR L3 D94A:R96A (Fab, V domains shown)
VH: B9 VH
VL: B9 VL with D98A, R100A
notes: Fab; variable domains only; Kabat numbering; also called D94: R96A double substitution
As to B12, in the experiment with IL-13 (in-house) [6], the “fold loss in binding affinity against the parental anti-IL-13 Fab” value was about 10 fold. In the experiment with IL-13 (in-house) [5], the Kd was found to be 0.7 nM, the koff turned out to be 0.00037 s⁻¹ and the kon came out at 528000 M⁻¹ s⁻¹.

B13: anti-IL-13 Fab variant CDR H3 D95A:P99A (Fab, name in Kabat numbering, V domains shown)
VH: B9 VH with D98A, P102A
VL: B9 VL
notes: as for B2
Regarding B13, the binding result with IL-13 (in-house) [7] was “no binding (tested: analyte up to 20 mM as printed)”.

B14: anti-IL-13 Fab variant CDR H3 D95A (Fab, name in Kabat numbering, V domains shown)
VH: B9 VH with D98A
VL: B9 VL
notes: as for B2
In the experiment with IL-13 (in-house) [5], B14 returned a dissociation constant Kd of 1.3 nM, an off-rate (koff) of 0.00111 s⁻¹ and a kon of 882000 M⁻¹ s⁻¹.

B15: anti-IL-13 Fab variant CDR L3 R96A (Fab, V domains shown)
VH: B9 VH
VL: B9 VL with R100A
notes: as for B2
For B15, the “fold loss in binding affinity against the parental anti-IL-13 Fab” value with IL-13 (in-house) [6] was about 10 fold. In the experiment with IL-13 (in-house) [5], this molecule registered a Kd of 0.5 nM, a koff of 0.00044 s⁻¹ and a kon of 825000 M⁻¹ s⁻¹.

B16: anti-IL-13 Fab variant CDR L3 D94A (Fab, V domains shown)
VH: B9 VH
VL: B9 VL with D98A
notes: as for B2
For the molecule B16, in the experiment with IL-13 (in-house) [5], the Kd worked out at 0.02 nM, the koff was 3e-05 s⁻¹ and the kon is 1.24e+06 M⁻¹ s⁻¹.
